According to article PMC6151396, “Production of Single-Chain Fv Antibodies Specific for GA-Pyridine, an Advanced Glycation End-Product (AGE), with Reduced Inter-Domain Motion” (Molecules : A Journal of Synthetic Chemistry and Natural …, 2017):
Substitutions are numbered along the chain they refer to. Names may count otherwise.

B1: AGE73scFv displayed on phage (scFv, V domains shown)
VH: QVKLQQSGPSLVKPSQTLSLTCSVTGDSITSGYWNWIRKFPGNKFEYLGYISYSGRTYYNPSLKSRISITRDTSKNQYYLQLNSVTTEDTATYYCSRPYYRYDYAIDYWGQGTTVTVSS
VL: DIELTQSPAIMSASLGERVTMTCTASSSVSSSYLHWYQQKPGSSPKLWIYSTSNLASGVPARFSSSGSGTSYSLTISRMEAEDAATYYCQQSRKVPYTFGGGTKLEIK
notes: VH of AGE73scFv; as the VH of m1; (Gly-Gly-Gly-Gly-Ser)3 linker; VL of AGE73scFv; as the VL of m1
B2: AGE112scFv displayed on phage (scFv, V domains shown)
VH: B1 VH with Q6E
VL: DIELTQSPTTMAASPGEKITITCSASSSISSNYLHWYQQKPGFSPKLLIYSTSNLASGVPARFSGSGSGTSYSLTISSMEAEDAATYYCQQWSSNPYTFGGGTKLEIK
notes: VH of AGE112scFv; (Gly-Gly-Gly-Gly-Ser)3 linker; VL of AGE112scFv
B3: 73MuL-V94A displayed on phage (scFv, V domains shown)
VH: B1 VH
VL: B1 VL with V95A
notes: as the VH of m1 (AGE73scFv); (Gly-Gly-Gly-Gly-Ser)3 linker; as the VL of m1 (AGE73scFv) with V94A; probably Kabat; source: second library, error-prone PCR of the VL of AGE73scFv
B4: 73MuL-S30P displayed on phage (scFv, V domains shown)
VH: B1 VH
VL: B1 VL with S31P
notes: as the VH of m1 (AGE73scFv); (Gly-Gly-Gly-Gly-Ser)3 linker; as the VL of m1 (AGE73scFv); source: second library, error-prone PCR of the VL of AGE73scFv
B5: AGE73scFv (scFv, V domains shown)
VH: B1 VH
VL: B1 VL
notes: VH of AGE73scFv, from the GA-KLH immunised mouse antibody library; (Gly-Gly-Gly-Gly-Ser)3 linker; VL of AGE73scFv, from the GA-KLH immunised mouse antibody library; the FLAG-tag lies on the N-terminal side of the hexahistidine-tag, so both are probably C-terminal of the scFv; also called anti-GA-pyridine scFv
B6: AGE78scFv displayed on phage (scFv, V domains shown)
VH: B1 VH with Q6E, Q81H, S96T, Y100H, Y108F
VL: DIELTQSPAIMSASPGEKVTMTCSASSSVSYMHWYQQKPGFSPKLLIYRTSNLASGVPARFSGSGSGTSYSLTIGTMEAEDVATYYCQQGSSIPYTFGGGTKLEIK
notes: VH of AGE78scFv; (Gly-Gly-Gly-Gly-Ser)3 linker; VL of AGE78scFv
B7: 73MuL-S56P displayed on phage (scFv, V domains shown)
VH: B1 VH
VL: B1 VL with S57P
notes: as the VH of m1 (AGE73scFv); (Gly-Gly-Gly-Gly-Ser)3 linker; as the VL of m1 (AGE73scFv); probably Kabat; source: second library, error-prone PCR of the VL of AGE73scFv

Legend:
[1] = target: T1, glycolaldehyde (GA)-modified bovine serum albumin (Bos taurus, UniProt P02769, modified by glycolaldehyde (GA-pyridine forms on the ε-amino group of Lys residues); sites not given); test: ELISA; phage ELISA: GA-BSA coated on a 96-well plate, scFv display phage clones added for 1 h at 25 °C, detected with HRP-conjugated anti-M13 antibody; conditions: one partner purified
T1 construct: bovine serum albumin; The scFvs are directed against GA-pyridine, a modified lysine; also called GA-BSA; source: BSA (25 mg/mL) incubated with 50 mM glycolaldehyde at 37 °C for 12 h, dialysed with PBS

[2] = target: T1, glycolaldehyde (GA)-modified bovine …; test: ELISA; competitive ELISA of purified AGE73scFv with AGE-modified BSAs as competitors; coated antigen and conditions not told in the text shown (Figure S2); conditions: both partners purified
[3] = target: T2, glyceraldehyde-modified BSA (Bos taurus, UniProt P02769, modified by glyceraldehyde; sites not given); test: as above; conditions: both partners purified
T2 construct: bovine serum albumin; also called GCA-BSA

[4] = target: T3, glucose-derived AGE-modified BSA (Bos taurus, UniProt P02769, glucose-derived AGE modification; sites not given); test: as above; conditions: both partners purified
T3 construct: bovine serum albumin; also called Glc-BSA
T3 sequence (P02769 25-607): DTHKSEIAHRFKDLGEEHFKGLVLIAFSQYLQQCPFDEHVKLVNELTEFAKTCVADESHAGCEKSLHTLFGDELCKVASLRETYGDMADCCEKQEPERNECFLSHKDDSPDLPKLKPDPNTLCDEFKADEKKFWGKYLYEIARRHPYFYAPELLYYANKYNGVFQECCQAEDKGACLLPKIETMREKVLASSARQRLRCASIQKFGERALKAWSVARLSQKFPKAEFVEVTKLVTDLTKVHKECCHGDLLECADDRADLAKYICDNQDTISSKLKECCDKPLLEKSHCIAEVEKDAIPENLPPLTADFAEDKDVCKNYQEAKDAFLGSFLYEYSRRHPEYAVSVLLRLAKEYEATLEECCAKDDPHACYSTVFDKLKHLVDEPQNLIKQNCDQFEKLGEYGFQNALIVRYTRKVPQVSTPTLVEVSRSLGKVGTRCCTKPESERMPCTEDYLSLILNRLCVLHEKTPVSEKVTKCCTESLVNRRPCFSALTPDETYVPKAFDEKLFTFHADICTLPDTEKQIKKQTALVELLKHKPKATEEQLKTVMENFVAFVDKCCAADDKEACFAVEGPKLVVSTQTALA

T1 sequence (P02769 25-607): as above
T2 sequence (P02769 25-607): as above

Binder | binding result [1] | also measured
B1 | binds | –
B2 | binds | –
B3 | binds | –
B4 | binds | –
B5 | – | binding result [2]: binds; binding result [3]: binds; binding result [4]: binds
B6 | binds | –
B7 | binds | –
